The text below walks through data of article PMC6525205, “Structure of the human frataxin-bound iron-sulfur cluster assembly complex provides insight into its activation mechanism” (Nature Communications, 2019).

Numbering of substitutions follows the chain as printed. Numbers in names are those of the source.

The labels stand for the following.
B1: human frataxin (FXN) (Δ1-80), wild-type (domain or fragment, UniProt Q16595 81-210, looked up)
chain: SGTLGHPGSLDETTYERLAEETLDSLAEFFEDLADKPYTFEDYDVSFGSGVLTVKLGGDLGTYVINKQTPNKQIWLSSPSSGPKRYDWTGKNWVYSHDGVSLHELLAAELTKALKTKLDLSSLAYSGKDA
notes: frataxin (FXN), human, Δ1-80; Cloned into pCDF-LIC-Bsa4; Two copies of FXN stand in the SDAUF heterodecamer; also called FXN(WT); WT; source: E. coli BL21(DE3)-R3-pRARE2, purified (Ni Sepharose, Superdex S75, TEV, reverse Ni); for cryo-EM co-expressed with the His-ISD11/NFS1/ISCU plasmid and purified as the SDAUF complex
B2: FXN(N151A) (domain or fragment, human, UniProt Q16595 81-210, looked up)
chain: B1 chain with N71A
notes: frataxin (FXN), human, Δ1-80, site-directed variant; Variant of m1
B3: FXN(R165C) (domain or fragment, human, UniProt Q16595 81-210, looked up)
chain: B1 chain with R85C
notes: frataxin (FXN), human, Δ1-80, clinical variant of Friedreich's ataxia; Variant of m1
B4: FXN(N146K) (domain or fragment, human, UniProt Q16595 81-210, looked up)
chain: B1 chain with N66K
notes: as for B3
B5: FXN(D124A) (domain or fragment, human, UniProt Q16595 81-210, looked up)
chain: B1 chain with D44A
notes: as for B2
B6: FXN(W155R) (domain or fragment, human, UniProt Q16595 81-210, looked up)
chain: B1 chain with W75R
notes: as for B3
B7: FXN(P163G) (domain or fragment, human, UniProt Q16595 81-210, looked up)
chain: B1 chain with P83G
notes: frataxin (FXN), human, Δ1-80, site-directed variant (Gly is the bacterial equivalent residue); Variant of m1

The target of this test is T1, NFS1-ISD11-ACP-ISCU complex with biotinylated ISCU (SDAUb) (human | E. coli, UniProt Q9Y697 56-457; Q9HD34 1-91; P0A6A8 1-74; Q9H1K1 35-167, pyridoxal 5′-phosphate covalently-linked to Lys258 | 4′-phosphopantetheine (4′-PP) acyl-chain attached to Ser37 | biotin (site and method not stated)).
T1 construct: NFS1 cysteine desulfurase, human, Δ1-55; C-terminal residue printed as His457; ISD11/LYRM4, human; E. coli acyl carrier protein (ACPec), endogenous in the expression host, co-purified; ISCU scaffold protein, human, isoform 1, Δ1-34; the related SDAUF complex holds two copies of each chain; source: purified SDA (E. coli) combined with biotinylated ISCU (E. coli) and isolated on Superdex 200 …
T1 sequence (Q9Y697 56-457, chain 1 of 4): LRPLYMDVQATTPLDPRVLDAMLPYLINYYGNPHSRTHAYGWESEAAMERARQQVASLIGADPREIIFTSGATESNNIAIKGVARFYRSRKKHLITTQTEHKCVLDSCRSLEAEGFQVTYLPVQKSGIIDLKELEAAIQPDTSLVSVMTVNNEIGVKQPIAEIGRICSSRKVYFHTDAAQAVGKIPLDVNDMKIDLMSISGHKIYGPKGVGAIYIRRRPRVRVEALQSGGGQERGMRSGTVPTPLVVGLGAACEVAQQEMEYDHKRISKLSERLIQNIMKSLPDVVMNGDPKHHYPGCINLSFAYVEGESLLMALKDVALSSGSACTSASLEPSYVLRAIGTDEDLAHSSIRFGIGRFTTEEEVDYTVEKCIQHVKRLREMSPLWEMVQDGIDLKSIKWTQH
T1 sequence (Q9HD34 whole entry, chain 2 of 4, canonical isoform): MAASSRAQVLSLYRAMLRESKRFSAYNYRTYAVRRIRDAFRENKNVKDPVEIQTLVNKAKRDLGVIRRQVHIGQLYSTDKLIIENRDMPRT
T1 sequence (P0A6A8 1-74, chain 3 of 4): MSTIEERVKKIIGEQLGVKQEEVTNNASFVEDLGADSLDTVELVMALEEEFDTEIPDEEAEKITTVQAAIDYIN
T1 sequence (Q9H1K1 35-167, chain 4 of 4): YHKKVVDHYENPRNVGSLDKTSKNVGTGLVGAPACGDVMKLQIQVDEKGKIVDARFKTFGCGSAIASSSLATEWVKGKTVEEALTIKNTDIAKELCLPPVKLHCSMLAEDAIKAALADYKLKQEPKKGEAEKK
The test can be described thus: BLI; SDAUb complex (biotinylated ISCU) at 0.1 mg/mL loaded on streptavidin sensors; FXN 500 µM to 1 nM in solution; 25 °C; 50 mM HEPES pH 7.5, 200 mM NaCl, 5% glycerol, 2 mM TCEP, 5 mM DTT, 0.5 mg/mL BSA; Kd from response vs. [FXN], one site-specific binding fit. Conditions: both partners purified. Background: BLI is a label-free optical method that tracks binding on a fibre tip over time.
The term Kd denotes a measure of binding affinity in units of concentration. Read a low Kd as tighter binding. On to B1, for which the Kd was 3.32 µM.

B2: binding was put at a Kd of 9.45 µM.

As to B3, the Kd was determined as 134 µM. This Kd lies about 14-fold higher than the previous one.

For B4, binding was characterised by a dissociation constant (Kd) of 177 µM.

With B5, the affinity, expressed as Kd, was 14.4 µM.

Molecule B6 returned a Kd of 253 µM.

In the case of B7, the Kd stood at 38.5 µM.
